In patent US8026218 (UNIVERSITY OF ARIZONA, dated 2011):
Square brackets hold non-standard residues; d marks the D form. Ends that are not written are not given here. * marks the point of attachment. NH(3,5-(CF3)2-benzyl) = FC(F)(F)c1cc(CN*)cc(C(F)(F)F)c1; OBzl(3,5-(CF3)2) = FC(F)(F)c1cc(CO*)cc(C(F)(F)F)c1; Phe(4-Cl) = N[C@@H](Cc1ccc(Cl)cc1)C(=O)O; Phe(4-F) = N[C@@H](Cc1ccc(F)cc1)C(=O)O

What was measured:
human NK1 receptor = biological target: T1, human NK1 receptor (human, UniProt P25103 1-407); test: competition vs [3H]Substance P, hNK1 CHO cell membranes
T1 construct: whole, on cells; membrane preparations of the transfected cells were used; also called hNK1; human neurokinin-1 receptor
T1 sequence (P25103 whole entry): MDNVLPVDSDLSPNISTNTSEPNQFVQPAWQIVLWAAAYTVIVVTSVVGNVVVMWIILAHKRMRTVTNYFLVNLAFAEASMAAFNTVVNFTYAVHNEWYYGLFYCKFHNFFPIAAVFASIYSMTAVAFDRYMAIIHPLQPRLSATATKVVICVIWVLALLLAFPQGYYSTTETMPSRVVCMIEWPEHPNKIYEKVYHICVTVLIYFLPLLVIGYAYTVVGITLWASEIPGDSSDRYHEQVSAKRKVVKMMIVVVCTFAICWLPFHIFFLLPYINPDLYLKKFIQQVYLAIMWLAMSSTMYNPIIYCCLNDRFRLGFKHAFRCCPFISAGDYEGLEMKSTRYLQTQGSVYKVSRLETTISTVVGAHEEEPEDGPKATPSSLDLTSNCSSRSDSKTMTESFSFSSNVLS

rat NK1 receptor [1] = biological target: T2, rat NK1 receptor (rat, UniProt P14600 1-407); test: competition vs [3H]substance P, membranes of rNK1-transfected CHO cells
T2 construct: whole, on cells; Assayed as membrane preparations of transfected CHO cells; also called rNK1; rNK-1
T2 sequence (P14600 whole entry): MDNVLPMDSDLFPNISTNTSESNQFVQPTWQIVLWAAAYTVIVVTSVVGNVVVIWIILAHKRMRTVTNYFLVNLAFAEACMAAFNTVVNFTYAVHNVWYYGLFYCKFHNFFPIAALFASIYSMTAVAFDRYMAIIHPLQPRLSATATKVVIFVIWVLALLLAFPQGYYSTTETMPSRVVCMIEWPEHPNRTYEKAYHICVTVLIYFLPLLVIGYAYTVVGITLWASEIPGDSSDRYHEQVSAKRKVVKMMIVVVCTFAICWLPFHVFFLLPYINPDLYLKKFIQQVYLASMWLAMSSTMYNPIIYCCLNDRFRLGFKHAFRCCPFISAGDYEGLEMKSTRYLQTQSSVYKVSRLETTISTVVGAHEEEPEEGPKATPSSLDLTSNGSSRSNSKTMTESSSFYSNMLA

human δ opioid receptor [2] = biological target: T3, human δ opioid receptor (human, UniProt P41143 1-372); test: cell-based or functional assay
T3 sequence (P41143 whole entry, stated change not applied): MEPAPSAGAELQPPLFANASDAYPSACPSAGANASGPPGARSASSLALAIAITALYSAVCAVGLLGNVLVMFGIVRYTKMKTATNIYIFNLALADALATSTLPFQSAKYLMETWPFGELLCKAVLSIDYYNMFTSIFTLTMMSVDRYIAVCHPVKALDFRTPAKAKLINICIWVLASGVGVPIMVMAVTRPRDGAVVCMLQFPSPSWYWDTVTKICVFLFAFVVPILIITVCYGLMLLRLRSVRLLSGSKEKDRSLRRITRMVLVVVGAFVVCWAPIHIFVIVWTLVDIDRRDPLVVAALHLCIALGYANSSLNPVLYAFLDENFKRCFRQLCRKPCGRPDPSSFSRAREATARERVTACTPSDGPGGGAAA

human δ opioid receptor [3] = biological target: T3, human δ opioid receptor; test: competition vs [3H]DPDPE, membranes of hDOR-transfected HN9.10 cells
rat NK1 receptor [4] = biological target: T4, rat NK1 receptor (rat, UniProt P14600 1-407); test: competition vs [3H]Substance P, rNK1 CHO cell membranes
T4 construct: whole, on cells; membrane preparations of the transfected cells were used; also called rNK1; rNK-1
T4 sequence (P14600 whole entry): as the sequence (P14600 whole entry) above

[5] = biological target: µ opioid receptor of the guinea pig isolated ileum (guinea pig, UniProt P97266 1-98); test: cell-based or functional assay
Chain of µ opioid receptor of the guinea pig isolated ileum (P97266 whole entry): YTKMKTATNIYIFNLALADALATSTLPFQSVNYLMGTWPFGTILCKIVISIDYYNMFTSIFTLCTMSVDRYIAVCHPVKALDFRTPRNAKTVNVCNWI

guinea pig NK1 receptor = guinea pig NK1 receptor (guinea pig, UniProt P30547 1-407); test: cell-based or functional assay
Chain of guinea pig NK1 receptor (P30547 whole entry): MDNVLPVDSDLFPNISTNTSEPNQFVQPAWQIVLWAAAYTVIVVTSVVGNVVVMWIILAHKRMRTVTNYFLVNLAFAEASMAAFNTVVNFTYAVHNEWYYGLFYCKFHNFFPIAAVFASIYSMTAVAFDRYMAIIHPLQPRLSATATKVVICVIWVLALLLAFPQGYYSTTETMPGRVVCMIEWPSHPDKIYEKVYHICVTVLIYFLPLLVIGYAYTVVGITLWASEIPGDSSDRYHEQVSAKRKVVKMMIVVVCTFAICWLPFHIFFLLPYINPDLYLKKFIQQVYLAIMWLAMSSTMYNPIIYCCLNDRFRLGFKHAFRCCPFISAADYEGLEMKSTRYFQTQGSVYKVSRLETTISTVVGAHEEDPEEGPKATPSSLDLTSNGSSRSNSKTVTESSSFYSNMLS

rat µ opioid receptor [6] = biological target: T5, rat µ opioid receptor (rat, UniProt P33535 1-398); test: cell-based or functional assay
T5 sequence (P33535 whole entry): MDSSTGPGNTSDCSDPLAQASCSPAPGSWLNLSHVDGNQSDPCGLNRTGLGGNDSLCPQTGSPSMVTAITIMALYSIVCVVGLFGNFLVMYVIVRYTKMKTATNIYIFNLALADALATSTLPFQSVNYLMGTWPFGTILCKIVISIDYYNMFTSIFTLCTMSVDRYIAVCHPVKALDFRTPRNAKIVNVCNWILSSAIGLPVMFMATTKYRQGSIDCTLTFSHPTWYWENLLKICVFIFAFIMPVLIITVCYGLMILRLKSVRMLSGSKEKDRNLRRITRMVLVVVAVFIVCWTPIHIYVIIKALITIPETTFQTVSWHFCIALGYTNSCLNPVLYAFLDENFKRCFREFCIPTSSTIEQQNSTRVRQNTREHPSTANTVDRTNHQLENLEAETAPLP

human δ opioid receptor [7] = biological target: T6, human δ opioid receptor (human, UniProt P41143 1-372); test: cell-based or functional assay; remark: listed apart in the source
T6 sequence (P41143 whole entry, stated change not applied): as the sequence (P41143 whole entry, stated change not applied) above

human δ opioid receptor [8] = biological target: T6, human δ opioid receptor; test: competition vs [3H]DPDPE, hDOR cell membranes
rat µ opioid receptor [9] = biological target: T5, rat µ opioid receptor; test: competition vs [3H]DAMGO, rMOR cell membranes

Y[dA]G[Phe(4-F)]-{O‑3,5‑Bzl(CF3)2} (also called NP62) [Tyr-D-Ala-Gly-pFPhe-O-3′,5′(CF3)2-Bzl]
Ki (human NK1 receptor): 0.2 nM

H-Y[dA]GFMPLW-{NH(3,5-(CF3)2-benzyl)} (also: TFA salt, TFA salt; also called TY027; TY27) [H-Tyr-D-Ala-Gly-Phe-Met-Pro-Leu-Trp-NH-3,5-Bzl(CF3)2]
Ki (rat NK1 receptor [1]): 7.3 nM | LogIC50 (rat NK1 receptor [1]): -7.6 | [35S]GTPγS binding EC50 (human δ opioid receptor [2]): 8.6 nM | [35S]GTPγS binding Emax (human δ opioid receptor [2]): 58% | [35S]GTPγS binding LogEC50 (human δ opioid receptor [2]): -8.1 | LogIC50 (human δ opioid receptor [3]): -8.8

Y[dA]GF[dF]PLW-{OBzl(3,5-(CF3)2)} (also called TY007) [TyrDAlaGlyPheDPheProLeuTrpOBn(CF3)2]
IC50 (rat NK1 receptor [4]): 66.7 nM | GPI/LMMP, inhibition at 1 mM [5]: 9% | GPI/LMMP SP antagonist Ke (guinea pig NK1 receptor): 69.6 nM | GTP binding EC50 (rat µ opioid receptor [6]): 345 nM | GTP binding Emax (rat µ opioid receptor [6]): 23.6% | GTP binding EC50 (human δ opioid receptor [7]): 16.7 nM | GTP binding Emax (human δ opioid receptor [7]): 22.9% | Ki (human δ opioid receptor [8]): 110 nM | Ki (rat µ opioid receptor [9]): 410 nM

Y[dA]GFGPLW-{OBzl(3,5-(CF3)2)} (also: TFA salt, also called TY006) [TyrDAlaGlyPheGlyProLeuTrpOBn(CF3)2]
IC50 (rat NK1 receptor [4]): 15.6 nM | GPI/LMMP IC50 [5]: 384 nM | GPI/LMMP SP antagonist Ke (guinea pig NK1 receptor): 5.4 nM | GTP binding EC50 (rat µ opioid receptor [6]): 41.7 nM | GTP binding Emax (rat µ opioid receptor [6]): 35.9% | GTP binding EC50 (human δ opioid receptor [7]): 50.2 nM | GTP binding Emax (human δ opioid receptor [7]): 33.6% | Ki (human δ opioid receptor [8]): 36.1 nM | Ki (rat µ opioid receptor [9]): 27 nM

Y[dA]GFFPLW-{OBzl(3,5-(CF3)2)} (also called TY003) [TyrDAlaGlyPhePheProLeuTrpOBn(CF3)2]
IC50 (rat NK1 receptor [4]): 19.3 nM | GPI/LMMP, inhibition at 1 mM [5]: 7% | GPI/LMMP SP antagonist Ke (guinea pig NK1 receptor): 14.4 nM | GTP binding EC50 (rat µ opioid receptor [6]): 58.7 nM | GTP binding Emax (rat µ opioid receptor [6]): 36.3% | GTP binding EC50 (human δ opioid receptor [7]): 20.8 nM | GTP binding Emax (human δ opioid receptor [7]): 39% | Ki (human δ opioid receptor [8]): 14.6 nM | Ki (rat µ opioid receptor [9]): 28.3 nM

Y[dA]GFLPLW-{OBzl(3,5-(CF3)2)} (also called TY004) [TyrDAlaGlyPheLeuProLeuTrpOBn(CF3)2]
IC50 (rat NK1 receptor [4]): 20.9 nM | GPI/LMMP IC50 [5]: 341 nM | GPI/LMMP SP antagonist Ke (guinea pig NK1 receptor): 19.4 nM | GTP binding Emax (rat µ opioid receptor [6]): 44.5% | GTP binding EC50 (human δ opioid receptor [7]): 9.6 nM | GTP binding Emax (human δ opioid receptor [7]): 42.5% | Ki (human δ opioid receptor [8]): 5 nM | Ki (rat µ opioid receptor [9]): 23.3 nM

Y[dA]G[Phe(4-Cl)]-{OBzl(3,5-(CF3)2)} (also called NP52) [Tyr-D-Ala-Gly-pClPhe-O-3′,5′(CF3)2-Bzl]
Ki (human NK1 receptor): 8.04 nM

Y[dA]GFW-{OBzl(3,5-(CF3)2)} (also called NP36) [Tyr-D-Ala-Gly-Phe-Trp-O-3′,5′(CF3)2-Bzl]
Ki (human NK1 receptor): 0.0005 nM
